Experimental data as given in patent US20140206628A1 (University of Washington, published 2014).
Like-named read-outs stand apart in the source and are kept apart here.

What was measured:
[1] = molecular target: T1, A/South Carolina/1/1918 (H1N1) hemagglutinin ectodomain, biotinylated (Influenza A virus A/South …)
[2] = molecular target: T1, A/South Carolina/1/1918 (H1N1) …; remark: listed apart in the source
[3] = molecular target: T1, A/South Carolina/1/1918 (H1N1) …; remark: listed apart in the source
[4] = molecular target: T1, A/South Carolina/1/1918 (H1N1) …; remark: listed apart in the source

Binder | fold increase of binding affinity relative to HB36 [1] [fold] | Kd [2] [nM] | Kd [3] [nM] | Kd [4] [nM]
HB36.1 (Asp47Ser) (designed binder) MSNAMDGQQLNRLLLEWIGAWDPFGLGKDAYDVEAEAVLQAVYETESAFDLAMRIMWIYAFAFNRPIPFPHAQKLARRLLELKQAASSPLPLE | ~40 | 5 | 2 to 5 | –
HB80.1 (Met26Thr, Asn36Lys) (designed binder) MASTRGSGRPWDFSENLAFELALAFTNKDTPDRWAKVAQYVSGRTPEEVKKHYEILVEDIKYIESGKVPFPNYRTTGGNMKTDEKRFRNLKIRLE | – | 7.5 | – | 7.5
